Test results published in the DeepSol protein solubility set.

Test: soluble on expression in E. coli; label from the status in PepcDB or PDB records

| Sequence | soluble on expression in E. coli |
| --- | --- |
| GAMTKPRFTTGLVYDTLMLKHQCTAGSSSSHPEHAGRIQSIWSRLQETGLRGKCEAIRGRKATLEELQTVHSEAHTLLYGTNPLNRQKLDSKKLLGSLASVFVRLPCGGVGVDSDTIWNEVHSAGAARLAVGCVVELVFKVATGELKNGFAVVRPPGHHAEESTPMGFCYFNSVAVAAKLLQQRLSVSKILIVDWDVHHGNGTQQAFYSDPSVLYMSLHRYDDGNFFPGSGAPDEVGTGPGVGFNVNMAFTGGLDPPMGDAEYLAAFRTVVMPIASEFAPDVVLVSSGFDAVEGHPTPLGGYNLSARCFGYLTKQLMGLAGGRIVLALEGGYDLTAICDASEACVSALLGNELDPLPEKVLQQRPNANAVRSMEKVMEIHSKYWRCLQRTTSTAGRSLIEAQTCENEEAETVT | soluble |
| IKNFSYGVKFVLSDAQQKILKYNNPDKSLSNPYYEGQKLGEIWGYKTIGIAQSDEEMNQHLANAKQPMGQKWAAGDIMYADLDNSGSVDQGNYKVGDSGDWQIIGNNTPRFNYGITIDAAWKGLDFRAFVQGIGKRDYWLNGPYFWGFSGGGEWASAGFKEHWDFWRPEGDPLGANTNSYFARVIRGTSKNQQRQTRYLQDASYWRLKNIQIGYTLPKVWTKKAGMESVRVYVSGDNLLTVSDITGVFDPENLGTQWTDPGKVYPLQKVIAIGLTVNF | not soluble |
| MYHVPLIPRDAGREETIFRINQSLQKLLRVSDEIFDRVEHRITRIHGKAEAIDRRTEVLEKKLESLQESDKVITFTLPRQLPKLPEEPPTSTSLFRINIDTEHFPGSEELPAFRRADDHVLRPCEPIDFTYELNKPDKFFLTSQVLKEYEQKGWERYKKRLLGGLRELSRSPEHIAELFYAGTSIPAFEGVSGDFSKKALDADDDGGTSRSGRTTDELAQLRLHEQLLEDTALSSTLMQEDSLDDNHPLAFRINFNEKKKKTAKMVEMPDSLPNLKGHAHDFTLRDPEIDEDRLLDILPADDQIPEASEPTEAEADAPTTFILPPPPPPMKLDPSPQPAATPVEITEIPPIISPPAPPPPPPPPPPPPPPQTPSASSSVTFSPTKSVDGGRSDLMAAIRAAGGAGNAKLSRIAEKPKRKGKFDGILESSALLGASETPRNSAPAPDGGGGGGDLMSALSKALDARRKAINGKVEAQPPAKVSSTIPAPPNFDDEEWD | not soluble |
| METSETDSTGNTQTCETRQTRSNSWTAWGIHAISTITDGAKQLYTKALGLDELEEKKLEDEEGVTHVEVDEKTKRDLWNQLSTLVGADVINMRLSLPVWLFEPTTALQRMCETLQFHQLLDMAATCEEPVERDALVAAFTVSAFAHTERVYKPFNPVLGETFEWTSRDGTTRVLCEQVSHHPPVSVSYTEGPGWVAQEVFSCNAYFLGNSVEIRNTGSRYVYLTSFDERYEWTLPVSAAQNLFVGGSFIDHYGELILRSSPRGSVTSLTFTKCGWFGRGRYAVNGDIVDADGYRVMELSGEWNRGLVGFRLDKSSGERVDAKSLWYAGEHKPAVKRDKYNFTNFTYELLEVPDNAESIIPPTDSRFRPDRRALEGNNLSLANLEKVRVENIQRERENQRQKTGTTYVPAWFYQDDNNEWHFGGKYWKETRNMSEDQKEQMKLW | soluble |
| MSLPIDTWFPLAVSRNLLTPDPALHERMVAQIFQWRGDLWANPSGESAWTGDMNGVALVHEHPDFAWLRSQVEVEALQFCQALGFQTEALQLWIQRSWPVVSEPGQSIGAHHHPNAHLSAIYYLNGSGDPELGALRIFDDRPRNELVPGLAVGYGEVIAEEAALNQAWIDYPPQAGLLLMFPASTRHGVTENLTDLTRLSVSFDLYLTARSATELAPEYLAPPVNRWSPIQLREGHHHHHH | soluble |
| MRGPVKIVATVGPSSSSASILAQMLSLGVDVARINASHGGVEQWNSMLESLRRAEEAVGKRVGVAVDLEGPRVRTGNSEPVKLEKGDLVTLGFMEGDVPVDARQFFETIDEGDIVLLDDGKIILQVESVEGFRVKARVLEGGVLGPRKGVVVRGKEPDLPPLSAKDRRALEFFADKGVSHVYVSFARSAEHVEKVRTVVRRLGLRQARIFAKIEGPSGVSRIGEIAEASDGVIIARGDLGMHYSLEELPEIQELIVWEARKRYKTVVLATEFLSSMIEKPVPTRSEVVDIYQAVLQTADALMLTGETAIGKYPVKSVQWMAKISSRAYKKLATSPPERPRPTSTPYKLALGLVELAESLDSPLVVYSKTGRFAERLASFKPLKTFYVGVPSREVERVVRHLWGAEPIVVGDYPYEAGLAKTYEKLRRENIIHGDETVVEAAWSSERGIYIIRVRNLEF | soluble |
| EQHADPICNKPCKTHDDCSGAWFCQACWNSARTCGPYVG | soluble |
| MGSDKIHHHHHHMSSINYAEKIPNNVNLSEDRKLQRALESWQPHYIDWWKEMGPEGTSTSEIYLRTAISAEPDGWAQFGHVKMEDYRWGIFLAPPEKDRKVNFGAHKGEAAWQEVPGEYRSMLRRLITVQGDTEPASVEQQRLLGKCCPSLYDLRNLFQVNVEEGRHLWAMVYLLHAHFGKDGREEAEEMLARRSGDADKPRILGAFNEKTADWLAFFMFTFITDRDGKYQLCALAESGFDPLSRSCRFMLTEEAHHMFVGESGVGRIIERACQVMKENRTDDVRKFGVIDLPTIQRYLNFHYSVTSDLYGAEVSTNAATSYNMGIKGRYEETKIGDDHQLENTTYSVLHPVNGGFQAIEVPALNALNERLRLDWAEDVAKGVERWNKIIAKHGIDFKLTLPHLAFNRAIGHFSDIAVDPSGKVISTEEFARRRDEWLPSESDLAYVLSLMGSAVTKPGQFANWIAPPARGINNQAVDFDYVRFA | not soluble |
| MSLLPRTTSVKPGEKFDVIIVGLGPAAYGAALYSARYMLKTLVIGETPGGQLTEAGIVDDYLGLIEIQASDMIKVFNKHIEKYEVPVLLDIVEKIENRGDEFVVKTKRKGEFKADSVILGIGVKRRKLGVPGEQEFAGRGISYCSVADAPLFKNRVVAVIGGGDSALEGAEILSSYSTKVYLIHRRDTFKAQPIYVETVKKKPNVEFVLNSVVKEIKGDKVVKQVVVENLKTGEIKELNVNGVFIEIGFDPPTDFAKSNGIETDTNGYIKVDEWMRTSVPGVFAAGDCTSAWLGFRQVITAVAQGAVAATSAYRYVTEKKGKK | soluble |
| ASVLTVKDIARKKPAAVFKKSEHDGPGSAMQILMDHDRDYGIVVDKSSRYSGIVSLDSLRLAHKENRSLASAQLEDDVTLQPDQSVNDILGVVASVPYAVPVVDEQGTYFGVVTKSRLLQTLDKD | soluble |
| MPRVSASPRTPPPPVMDLRMSEDSAFPIDFSALTRAQLENITRVCHGSAGSVFQQAGLFTSAGLPIVNNVRLKLAQRDADAFTTFEELINLFEDFYGRLALIEDTQNNLLLSALSAGDEPGETLQ | not soluble |
| MEPPSSRPEEPPSWEDLYKINLMPSELFLKFRKELQGLRVGVNLELYNEPTNDYHAKLVLKPLCPERKWKFIYEPLHQEVRVLSKKIPVTRFLNLQVGVGHNFQMNAIGWKWKLTSCLGGDGVSRIRNKTTLGLSPGIDFRFGWRADFVLPEVTGALGTEEPLFNMSSGRLEASLDRVEAIVTHSDYL | soluble |
| MALSDRLELVSASEIRKLFDIAAGMKDVISLGIGEPDFDTPQHIKEYAKEALDKGLTHYGPNIGLLELREAIAEKLKKQNGIEADPKTEIMVLLGANQAFLMGLSAFLKDGEEVLIPTPAFVSYAPAVILAGGKPVEVPTYEEDEFRLNVDELKKYVTDKTRALIINSPCNPTGAVLTKKDLEEIADFVVEHDLIVISDEVYEHFIYDDARHYSIASLDGMFERTITVNGFSKTFAMTGWRLGFVAAPSWIIERMVKFQMYNATCPVTFIQYAAAKALKDERSWKAVEEMRKEYDRRRKLVWKRLNEMGLPTVKPKGAFYIFPRIRDTGLTSKKFSELMLKEARVAVVPGSAFGKAGEGYVRISYATAYEKLEEAMDRMERVLKERKLV | soluble |
| GMSTDTCIKRPTRSELVDRFQKKIRAGEPIIGGGAGTGLSAKSEEAGDIDLIVIYNSGRYRMAGRGSLAGLLAYGNANQIVVDMAREVLPVVRHTPVLAGVNGTDPFMVMSTFLRELKEIGFAGVQNFPTVGLIDGLFRQNLEETGMSYAQEVEMIAEAHKLDLLTTPYVFSPEDAVAMAKAGADILVCHMGLTTGGAIGARSGKSMDDCVSLINECIEAARTIRDDIIILSHGGPIANPEDARFILDSCQGCHGFYGASSMERLPAEEAIRSQTLAFKAIRRQPA | soluble |
| MSLGLINVLIADDQTLMREGLKTIIDLEDDMNVTGLAKNGKEVLDQIPCLLPHVILMDIQMPIMNGIECLKVVKRIYPHINVLMLTTFEDDDYIIESLVGGANGFLLKDLNYDQLIYSIRQSVDGQMLIPNSIAVKLAKQLSKYNELTEVDLQIEKLKKEGLHFSERERQIASLLAQGLTNKKIAEKLYITEGTVKNYISEIYSKIGIRDRMQASTYLRELGINDEGHHHHHH | soluble |
| MIRLIGMEDGKTLEDLVKTKIATDTKHKPRKDAVLCSEMFLSASPEYFRPHDPSLAGEWNDERMVLFAKASITWLKTNYGDKCVRAELHLDEATPHIHAYIVPINDKTKLLSHKEMFGGDGRVGSIKLSKLQDSYAQALAPLGIERGVKGSKATHTKVKEYYQAVNSEPLTAVWSNQKLEHHHHHH | not soluble |
| PLPEACADMLWSNLGLLAAEQILPVLHNWARALKTDGLLFFTCFGRDTLAELKCRLKENGIESRSALFPDMHDLGDMLAENGFYDPVTDTAKLVLDYKKAETFWADMDTLGVWRAMAWNDENAARSCVGTIFEREGGLGITLETVYGHAVK | not soluble |
| MNQEQNDIAIRVSNLSKCYHIYDTPRDRLKQFILPRLHHLTGQTPRQYFREFWALRDVSFEVKKGETIGIIGRNGSGKSTLLQMICGTLNPTSGSITTYGRIAALLELGSGFNPEFTGRENVYMNASVLGLSQEETDARFDDIAAFADIGEFIEQPVKTYSSGMMVRLGFAVQAQVKPDILIVDEALAVGDAKFQAKCFDRLQQLKDGGTSILLVTHSSEQIVTHCSEAILLDGGDVIEHGEPRYVVNHYMDLLFGKERKSYSASAFSTESNSVEPTQDDNLSLNFIDDVFSSHANYNEHEYRWGDGTATILDFYLLTDNEPYPSVITSGQSVVLGVAVRFYEDLVRPILGITIKTKEGVTVYGVNSETLETDEIKVLGSKGTTALIKAEFICRLAPGDYFISLGLATRKGEEIVPHDRRYDAIYLQIAPVTKFFGLVDLGLKLSAQNTSLLEHHHHHH | soluble |
| MGSSHHHHHHSSGLVPRGSDYMFKLLLIGNSSVGKTSFLFRYADDSFTPAFVSTVGIDFKVKTVYRHDKRIKLQIWDTAGQERYRTITTAYYRGAMGFLLMYDIANQESFAAVQDWATQIKTYSWDNAQVILVGNKCDLEDERVVPAEDGRRLADDLGFEFFEASAKENINVKQVFERLVDVICEKMNE | soluble |
| MSLSASRAIKERDSRSHIKVLFPSMPYVYVSRLINEGLVRLAENDQGWEYSLATDCPKLSPTLYECTLRQGVRFQDGTPFNADSVIKNFDYFLAQPFNYTDIHRSLKAVEKVSPYKIRLILSQPYGMLFRDLARIFFYSDAYLRQYGWGGAETGANIKSAGSYGLGPYILVEGMITGRKQTPKAILKANPYYWEKGFPKIETITVFTELETQSALESLLEREGELDFMPIPFNKKIETLLSPYTKLIITPSTNNFTIYFNLHKHDSKVFDPKVRQALNCALNQENLLNFTYKKEGRPNTGAYTHEDCPFSLRELHEILRGLKFKVATQDSLLFLWRGIEYQLSRYGVELEFLLTTSEKEIYDLAQKNHQQTQEWDMLIQGTQDWYGRHPWPIFIRYQEGNPWSFVTGDIKMREAINQLFRHEQGTPEFEALCQTIIQRAKEKAYMLFIPTPHAVYGMNKELHFTPHGIGLQPLWKAEVTSEHWSLRGDKPYPESLQKPILPQREGHHHHHH | not soluble |
